Data: patent US20220411487A1 (Regeneron, published 2022)
Changes are numbered by the printed parent chain. Names and notes keep the numbering of the source.

T1: full length human TMPRSS6 with a C-terminal triple myc tag on HEK293.hHJV cells (HEK293.hHJV/3xMyc.hTMPRSS6) (human, UniProt Q8IU80 1-811)
T1 sequence: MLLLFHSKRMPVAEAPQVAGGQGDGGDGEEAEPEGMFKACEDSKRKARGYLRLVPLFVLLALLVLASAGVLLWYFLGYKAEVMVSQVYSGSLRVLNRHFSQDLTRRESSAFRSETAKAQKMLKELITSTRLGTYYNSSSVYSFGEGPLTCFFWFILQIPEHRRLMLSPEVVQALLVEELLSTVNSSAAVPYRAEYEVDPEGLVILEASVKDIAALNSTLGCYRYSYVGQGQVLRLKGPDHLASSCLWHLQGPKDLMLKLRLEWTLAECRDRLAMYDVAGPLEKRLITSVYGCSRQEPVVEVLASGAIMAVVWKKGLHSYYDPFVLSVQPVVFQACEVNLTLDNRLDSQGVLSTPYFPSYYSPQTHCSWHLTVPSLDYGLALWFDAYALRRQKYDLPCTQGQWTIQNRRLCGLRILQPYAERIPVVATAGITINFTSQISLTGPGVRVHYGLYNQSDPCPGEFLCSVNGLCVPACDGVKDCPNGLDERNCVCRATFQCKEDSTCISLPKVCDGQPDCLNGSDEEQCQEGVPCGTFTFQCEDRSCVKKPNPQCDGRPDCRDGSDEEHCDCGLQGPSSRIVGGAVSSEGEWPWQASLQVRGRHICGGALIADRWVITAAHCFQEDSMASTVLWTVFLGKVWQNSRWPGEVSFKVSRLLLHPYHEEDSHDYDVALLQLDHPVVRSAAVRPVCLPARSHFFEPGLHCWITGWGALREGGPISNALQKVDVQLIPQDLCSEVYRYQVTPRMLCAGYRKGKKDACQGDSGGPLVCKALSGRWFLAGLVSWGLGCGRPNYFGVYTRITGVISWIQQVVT

T2: mfTMPRSS6_S751A-MMH (Macaca fascicularis, UniProt Q8IU80 77-811 (human entry))
T2 construct: also called REGN5977; Macaca fascicularis TMPRSS6 extracellular domain with a S751A mutation and a C-terminal myc-myc-hexahistidine tag
T2 chain: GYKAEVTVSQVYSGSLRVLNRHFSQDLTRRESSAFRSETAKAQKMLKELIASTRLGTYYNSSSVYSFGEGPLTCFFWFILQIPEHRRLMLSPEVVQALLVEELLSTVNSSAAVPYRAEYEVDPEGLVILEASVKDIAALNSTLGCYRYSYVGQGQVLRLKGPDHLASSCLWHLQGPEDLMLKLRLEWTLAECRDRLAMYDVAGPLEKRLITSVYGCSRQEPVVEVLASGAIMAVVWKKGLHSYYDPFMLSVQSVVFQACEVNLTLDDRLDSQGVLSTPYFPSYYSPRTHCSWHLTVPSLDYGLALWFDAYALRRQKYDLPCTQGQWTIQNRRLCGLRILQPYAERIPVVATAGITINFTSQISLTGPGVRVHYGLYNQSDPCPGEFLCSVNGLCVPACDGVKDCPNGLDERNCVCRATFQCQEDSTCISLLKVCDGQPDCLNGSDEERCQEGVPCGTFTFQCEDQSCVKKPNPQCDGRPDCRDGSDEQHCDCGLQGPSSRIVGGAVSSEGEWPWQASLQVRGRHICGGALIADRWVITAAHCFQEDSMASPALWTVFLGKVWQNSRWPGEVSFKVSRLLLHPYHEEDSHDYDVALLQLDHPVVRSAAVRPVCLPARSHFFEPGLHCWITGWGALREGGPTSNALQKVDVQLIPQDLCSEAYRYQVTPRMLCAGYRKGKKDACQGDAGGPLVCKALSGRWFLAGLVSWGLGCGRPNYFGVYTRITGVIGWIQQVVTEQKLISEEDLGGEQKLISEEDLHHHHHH

B1: REGN7969 (antibody, human IgG4 S228P, kappa, V domains shown)
VH: QVQLVESGGGVVQPGRSLRLSCAASGFTFNNYGMHWVRQAPGKGLEWVAIISYDGSNEYYSDSVKGRFTISRDNSKNTLYLQMNSLRAEDTAVYYCARDQDYGGNLFHYWGQGTLVTVSS
VL: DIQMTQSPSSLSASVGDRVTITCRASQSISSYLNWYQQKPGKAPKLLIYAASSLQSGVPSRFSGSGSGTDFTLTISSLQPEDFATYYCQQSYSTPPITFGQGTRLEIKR
notes: fully human; human IgG4 Fc with hinge S108P; also called mAb37746
B2: REGN7971 (antibody, human IgG4 S228P, kappa, V domains shown)
VH: B1 VH with N30S, N31T, E58D, S61L, S85N, R98K, D101G, H108A, Y109S
VL: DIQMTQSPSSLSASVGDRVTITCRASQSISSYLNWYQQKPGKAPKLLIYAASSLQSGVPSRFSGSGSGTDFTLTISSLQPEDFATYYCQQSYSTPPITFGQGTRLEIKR
notes: fully human; human IgG4 Fc with hinge S108P; also called mAb37763
B3: REGN7974 (antibody, human IgG4 S228P, kappa, V domains shown)
VH: EVQLVESGGGLVQPGRSLRLSCIASGFNFGDYGMSWVRQAPGKGLEWVGFIRSKAYGGTTEYAASVKGRFTISRDDSKSIAYLQMNSLKTEDAAMYYCSRDYYDILTGYYGDYWGQGTLVTVSS
VL: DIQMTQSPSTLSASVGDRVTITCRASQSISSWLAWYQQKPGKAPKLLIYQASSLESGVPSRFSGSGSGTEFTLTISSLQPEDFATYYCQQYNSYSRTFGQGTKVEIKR
notes: fully human; human IgG4 Fc with hinge S108P; also called mAb41422
B4: REGN7977 (antibody, V domains shown)
VH: EVQLVESGGGLVKPGGSLRVSCAASGVTFSNVWMSWVRQVPGKGLEWVGRIKSKTDGGTTDYAAPVKGRFTISKDDSKNTLFLQMNSLKTEDTAVYYCTTETGDFWSGYYPRFQHWGQGTLVTVSS
VL: DIQMTQSPSSLSASVGDRVTITCRASQYISTYLNWYQQKPGKAPSLLIYAASSLQSGVPSRFSGSGSGTDFTLTISSLQPEDFASYSCQQSYSTPPYTFGQGTKLEIKR
notes: fully human; human IgG4 Fc with hinge S108P; also called mAb41465
B5: REGN7999 (antibody, human IgG4 S228P, kappa, V domains shown)
VH: EVQLVESGGGLVQPGGSLRLSCAASGFTFSSYAMTWVRQAPGKGLEWVSAISGSDTSTYYADSVKGRFTISRDNSKNTLFLQMNSLRAEDTAVYYCAKHQDYDFSYYYSAMDVWGQGTTVTVSS
VL: DIQMTQSPSSLSASVGDRVIITCRASQDFNSWLAWYQQKPGKAPKLLIYAASSLQSGVPSRFSGSGSGTDFTLTISSLQPEDFATYYCQQTDSFPFTFGPGTKVDIKR
notes: fully human; human IgG4 Fc with hinge S108P; also called mAb41450
B6: REGN8023 (antibody, human IgG4 S228P, kappa, V domains shown)
VH: EVQLVESGGGLVKPGGSLRISCAASGFIFVDYAMHWVRQAPGKGLEWVSGISWNSGSIGYADSVKGRFTISRDNAKKSLYLQMSGLRPEDTALYYCVKSGFYYVRSYFDNWGQGTLVTVSS
VL: DIVMTQSPLSLPVTPGEPASISCRSSQSLLDSDDGNTYLDWYLRKPGQSPQLLIYTLSYRASGVPDRFSGSGSGTDFTLKISRVEADDVGVYYCMQRIEFPLTFGGGTKVEIKR
notes: fully human; human IgG4 Fc with hinge S108P; also called mAb37699

The binders below were run against T1, full length human TMPRSS6 with a … (assay: cell-based or functional assay).

Row | IC50, soluble hHJV release (ELISA) [nM] | Inhibition (%) of soluble hHJV release (ELISA) [%] | Binder
1 | 0.0712 | > 99 | B1
2 | 0.0774 | 89.9 | B2
3 | 0.154 | > 99 | B3
4 | 0.127 | > 99 | B4
5 | 0.102 | > 99 | B5
6 | 0.149 | > 99 | B6

The binders below were run against T3, hTMPRSS6_S762A-MMH (human, UniProt Q8IU80 77-811) (assay: SPR, mAb captured via anti-hFc, 25 C).
T3 construct: also called REGN5330; human TMPRSS6_S762A-MMH
Procedure: (§1) The equilibrium dissociation constant (KD) for TMPRSS6 binding to different TMPRSS6 monoclonal antibodies (mAbs) was determined using a real-time surface plasmon resonance biosensor using a Biacore 4000 instrument. All binding studies were performed in 10 mM HEPES, 150 mM NaCl, 3 mM EDTA, and 0.05% v/v Surfactant Tween-20, pH 7.4 (HBS-ET) running buffer at 25° C. and 37° C. The Biacore CM5 sensor chip surface was first derivatized by amine coupling with a human Fc specific mouse mAb to capture different TMPRSS6 mAbs. […] Different concentrations (100 nM to 3.7 nM, 3-fold serial dilution) of the TMPRSS6 reagent proteins prepared in HBS-EP running buffer were injected over the TMPRSS6 mAb captured surface for 150 seconds at a flow rate of 30 μL/min and their dissociation in HBS-ET running buffer was monitored for 10 minutes. At the end of each cycle, the TMPRSS6 mAb captured surface was regenerated using a 12 second injection of 20 mM phosphoric acid.
(§2) The association rate (kₐ) and dissociation rate (kd) were determined by fitting the real-time binding sensorgrams to a 1:1 binding model with mass transport limitation using Scrubber 2.0 (BioLogic Software) curve-fitting software. Binding dissociation equilibrium constant (KD) and dissociative half-life (t½) were calculated from the kinetic rates as: […]

Row | 100 nM Ag Bound [RU] | Kd [nM] | koff [s⁻¹] | kon [M⁻¹ s⁻¹] | t½ [h] | Binder
7 | 89 | 0.45 | 0.000182 | 404000 | 1.07 | B1
8 | 103 | 0.322 | 0.000147 | 455000 | 1.32 | B2
9 | 191 | 2.63 | 0.00068 | 259000 | 0.283 | B3
10 | 159 | 1.69 | 0.000368 | 218000 | 0.517 | B4
11 | 176 | 0.243 | 6.49e-05 | 267000 | 2.97 | B5
12 | 205 | 0.128 | 8.6e-05 | 671000 | 2.23 | B6

Target: T2, mfTMPRSS6_S751A-MMH
Test: SPR, mAb captured via anti-hFc, 25 C
Procedure: as §1, §2

Row | 100 nM Ag Bound [RU] | Kd [nM] | koff [s⁻¹] | kon [M⁻¹ s⁻¹] | t½ [h] | Binder
13 | 92 | 0.435 | 0.000182 | 419000 | 1.05 | B1
14 | 109 | 0.283 | 0.000138 | 487000 | 1.4 | B2
15 | 188 | 7.18 | 0.00192 | 268000 | 0.1 | B3
16 | 155 | 3.09 | 0.000697 | 225000 | 0.283 | B4
17 | 185 | 0.11 | 7.23e-05 | 660000 | 2.67 | B5
18 | 203 | 0.065 | 5.79e-05 | 891000 | 3.32 | B6
